Data from the supplement of paper PMC10567573.

B1: TMEM175 (parent)
chain: ALLHQAETLQPSVWFGGREHVLMF

Variants of: B1
Assay: protein stability index of a GFP-peptide fusion (GPS, HEK-293T) (PSI 1-6); higher = more stable
Settings: c terminus: a fixed tail appended
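Also: lentivirally expressed fusions sorted by FACS into six bins by GFP to DsRed ratio, PSI derived from sequencing read proportions per bin multiplied by bin number.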

Q: With ALLHQAETLQPSVWFGGREIVLMF [H20I] as the variant, how does the protein stability index read?
A: Its protein stability index is 2.97.

Q: For ALLHQAETLQPSVWFGGRESVLMF [H20S], which protein stability index is on record?
A: The protein stability index was 2.21.

Q: With ALLHTAETLQPSVWFGGREHVLMF [Q5T] as the variant, how does the protein stability index read?
A: Its protein stability index is 2.94.

Q: Which protein stability index does the source give for ALLHRAETLQPSVWFGGREHVLMF [Q5R] here?
A: Its protein stability index is 2.33.

Q: Which protein stability index does the source give for ALLHVAETLQPSVWFGGREHVLMF [Q5V] here?
A: The protein stability index was 3.06.

Q: For ALLHSAETLQPSVWFGGREHVLMF [Q5S], which protein stability index is on record?
A: Its protein stability index is 2.72.

Q: For ALLHQAWTLQPSVWFGGREHVLMF [E7W], which protein stability index is on record?
A: The protein stability index was 3.4.

Q: For ALLHQAPTLQPSVWFGGREHVLMF [E7P], which protein stability index is on record?
A: Its protein stability index is 1.96.

Q: Which protein stability index does the source give for ALLHQAFTLQPSVWFGGREHVLMF [E7F] here?
A: Its protein stability index is 2.64.

Q: For ALLHQAGTLQPSVWFGGREHVLMF [E7G], which protein stability index is on record?
A: Its protein stability index is 3.88.

Q: For ALLHQANTLQPSVWFGGREHVLMF [E7N], which protein stability index is on record?
A: The protein stability index was 1.88.

Q: For ALLHQAYTLQPSVWFGGREHVLMF [E7Y], which protein stability index is on record?
A: The protein stability index was 1.78.

Q: With ALLHQASTLQPSVWFGGREHVLMF [E7S] as the variant, how does the protein stability index read?
A: The protein stability index was 2.22.

Q: With ALLHQAKTLQPSVWFGGREHVLMF [E7K] as the variant, how does the protein stability index read?
A: The protein stability index was 3.58.

Q: For ALLHQADTLQPSVWFGGREHVLMF [E7D], which protein stability index is on record?
A: The protein stability index was 1.

Q: With ALLHQAHTLQPSVWFGGREHVLMF [E7H] as the variant, how does the protein stability index read?
A: Its protein stability index is 3.

Q: Which protein stability index does the source give for ALLHQAMTLQPSVWFGGREHVLMF [E7M] here?
A: Its protein stability index is 3.19.

Q: Which protein stability index does the source give for ALLHQAQTLQPSVWFGGREHVLMF [E7Q] here?
A: Its protein stability index is 2.71.

Q: With ALLHQAETLQPSVWFGGRSHVLMF [E19S] as the variant, how does the protein stability index read?
A: Its protein stability index is 2.2.

Q: For ALLHQAETLQPSVWFGGRLHVLMF [E19L], which protein stability index is on record?
A: Its protein stability index is 2.74.

Q: With ALLHQAETLQPSVWFGGRAHVLMF [E19A] as the variant, how does the protein stability index read?
A: Its protein stability index is 2.27.

Q: For ALLHQAETLQPSVWFGGRYHVLMF [E19Y], which protein stability index is on record?
A: The protein stability index was 1.81.

Q: Which protein stability index does the source give for ALLHQAETLQPSVWFGGRWHVLMF [E19W] here?
A: The protein stability index was 2.92.

Q: With ALLHQAETLQPSVWFGGRHHVLMF [E19H] as the variant, how does the protein stability index read?
A: The protein stability index was 2.74.

Q: Which protein stability index does the source give for ALLHQAETLQPSVWFGGRNHVLMF [E19N] here?
A: The protein stability index was 1.42.

Q: For ALLHQAETLQPSVWFGGRCHVLMF [E19C], which protein stability index is on record?
A: Its protein stability index is 3.88.

Q: Which protein stability index does the source give for ALLHQAETLQPSVWFGGRFHVLMF [E19F] here?
A: The protein stability index was 1.97.

Q: With ALLHQAETLQPSVWFGGRPHVLMF [E19P] as the variant, how does the protein stability index read?
A: Its protein stability index is 2.37.

Q: With ALLHQAETLQPSVWFGGMEHVLMF [R18M] as the variant, how does the protein stability index read?
A: Its protein stability index is 2.03.

Q: For ALLHQAETLQPSVWFGGWEHVLMF [R18W], which protein stability index is on record?
A: The protein stability index was 3.12.

Q: With ALLHQAETLQPSVWFGGCEHVLMF [R18C] as the variant, how does the protein stability index read?
A: Its protein stability index is 3.1.

Q: Which protein stability index does the source give for ALLHQAETLQPSVWFGGQEHVLMF [R18Q] here?
A: The protein stability index was 2.33.

Q: Which protein stability index does the source give for ALLHQAETLQPSVWFGGVEHVLMF [R18V] here?
A: Its protein stability index is 1.44.

Q: For ALLHQAETLQPSVWFGGFEHVLMF [R18F], which protein stability index is on record?
A: Its protein stability index is 2.29.

Q: With ALLHQAETLQPSVWFGGGEHVLMF [R18G] as the variant, how does the protein stability index read?
A: Its protein stability index is 2.08.

Q: Which protein stability index does the source give for ALLHQAETLQPSVWFGGKEHVLMF [R18K] here?
A: Its protein stability index is 3.39.

Q: Which protein stability index does the source give for ALLHQAETLQPSVWFGGEEHVLMF [R18E] here?
A: Its protein stability index is 1.76.

Q: For ALLHQAETLQPSVWFGGSEHVLMF [R18S], which protein stability index is on record?
A: The protein stability index was 1.15.

Q: With ALLHQAETLQPSVWFGGPEHVLMF [R18P] as the variant, how does the protein stability index read?
A: The protein stability index was 1.71.

Q: Which protein stability index does the source give for ALLHQAETLQPSVWFGGLEHVLMF [R18L] here?
A: The protein stability index was 3.03.

Q: Which protein stability index does the source give for ALLHQAETLQPSVWFGGHEHVLMF [R18H] here?
A: Its protein stability index is 2.17.

Q: With ALLHQAETLQPSVWFGGDEHVLMF [R18D] as the variant, how does the protein stability index read?
A: The protein stability index was 1.93.

Q: For ALLHQAETLQPSVWFGGNEHVLMF [R18N], which protein stability index is on record?
A: Its protein stability index is 3.11.

Q: Which protein stability index does the source give for ALLHQAETLQPSVWFGGTEHVLMF [R18T] here?
A: The protein stability index was 2.46.

Q: For ALLHQAETLQPSVWFGGIEHVLMF [R18I], which protein stability index is on record?
A: The protein stability index was 3.13.

Q: For ALLHQAETLQPSVWFGGAEHVLMF [R18A], which protein stability index is on record?
A: The protein stability index was 2.59.

Q: Which protein stability index does the source give for ALLHQAETLQRSVWFGGREHVLMF [P11R] here?
A: The protein stability index was 4.75.

Q: Which protein stability index does the source give for ALLHQAETLQDSVWFGGREHVLMF [P11D] here?
A: Its protein stability index is 2.79.

Q: For ALLHQAETLQGSVWFGGREHVLMF [P11G], which protein stability index is on record?
A: Its protein stability index is 1.24.

Q: Which protein stability index does the source give for ALLHQAETLQLSVWFGGREHVLMF [P11L] here?
A: Its protein stability index is 1.82.

Q: Which protein stability index does the source give for ALLHQAETLQASVWFGGREHVLMF [P11A] here?
A: Its protein stability index is 1.78.

Q: Which protein stability index does the source give for ALLHQAETLQHSVWFGGREHVLMF [P11H] here?
A: Its protein stability index is 1.77.

Q: With ALLHQAETLQKSVWFGGREHVLMF [P11K] as the variant, how does the protein stability index read?
A: The protein stability index was 2.59.

Q: For ALLHQAETLQQSVWFGGREHVLMF [P11Q], which protein stability index is on record?
A: Its protein stability index is 1.38.

Q: With ALLHQYETLQPSVWFGGREHVLMF [A6Y] as the variant, how does the protein stability index read?
A: The protein stability index was 2.91.

Q: With ALLHQTETLQPSVWFGGREHVLMF [A6T] as the variant, how does the protein stability index read?
A: The protein stability index was 1.83.

Q: For ALLHQHETLQPSVWFGGREHVLMF [A6H], which protein stability index is on record?
A: The protein stability index was 2.17.

Q: With ALLHQDETLQPSVWFGGREHVLMF [A6D] as the variant, how does the protein stability index read?
A: The protein stability index was 2.55.

Q: For ALLHQQETLQPSVWFGGREHVLMF [A6Q], which protein stability index is on record?
A: Its protein stability index is 1.87.

Q: With ALLHQPETLQPSVWFGGREHVLMF [A6P] as the variant, how does the protein stability index read?
A: The protein stability index was 2.43.

Q: Which protein stability index does the source give for ALLHQCETLQPSVWFGGREHVLMF [A6C] here?
A: Its protein stability index is 3.75.

Q: Which protein stability index does the source give for ALLHQFETLQPSVWFGGREHVLMF [A6F] here?
A: The protein stability index was 3.21.

Q: With ALLHQKETLQPSVWFGGREHVLMF [A6K] as the variant, how does the protein stability index read?
A: Its protein stability index is 1.68.

Q: For ALLHQSETLQPSVWFGGREHVLMF [A6S], which protein stability index is on record?
A: The protein stability index was 1.68.

Q: With ALLHQEETLQPSVWFGGREHVLMF [A6E] as the variant, how does the protein stability index read?
A: Its protein stability index is 1.54.

Q: For ALLHQAEDLQPSVWFGGREHVLMF [T8D], which protein stability index is on record?
A: The protein stability index was 1.83.

Q: With ALLHQAEFLQPSVWFGGREHVLMF [T8F] as the variant, how does the protein stability index read?
A: Its protein stability index is 3.68.

Q: Which protein stability index does the source give for ALLHQAEELQPSVWFGGREHVLMF [T8E] here?
A: The protein stability index was 2.03.

Q: Which protein stability index does the source give for ALLHQAELLQPSVWFGGREHVLMF [T8L] here?
A: Its protein stability index is 4.17.

Q: With ALLHQAENLQPSVWFGGREHVLMF [T8N] as the variant, how does the protein stability index read?
A: Its protein stability index is 1.63.

Q: Which protein stability index does the source give for ALLHQAESLQPSVWFGGREHVLMF [T8S] here?
A: Its protein stability index is 1.65.

Q: For ALLHQAEYLQPSVWFGGREHVLMF [T8Y], which protein stability index is on record?
A: Its protein stability index is 2.91.

Q: Which protein stability index does the source give for ALLHQAECLQPSVWFGGREHVLMF [T8C] here?
A: Its protein stability index is 2.94.

Q: Which protein stability index does the source give for ALLHQAEHLQPSVWFGGREHVLMF [T8H] here?
A: The protein stability index was 2.95.

Q: With ALLHQAEKLQPSVWFGGREHVLMF [T8K] as the variant, how does the protein stability index read?
A: Its protein stability index is 3.25.

Q: For ALLHQAEWLQPSVWFGGREHVLMF [T8W], which protein stability index is on record?
A: The protein stability index was 1.69.

Q: With ALLHQAEVLQPSVWFGGREHVLMF [T8V] as the variant, how does the protein stability index read?
A: Its protein stability index is 1.01.

Q: With ALLHQAERLQPSVWFGGREHVLMF [T8R] as the variant, how does the protein stability index read?
A: The protein stability index was 1.26.

Q: With ALLHQAETLQPSVWFGGREHCLMF [V21C] as the variant, how does the protein stability index read?
A: The protein stability index was 2.73.

Q: For ALLHQAETLQPSVWFGGREHALMF [V21A], which protein stability index is on record?
A: The protein stability index was 1.42.

Q: For ALLHQAETLQPSVWFGAREHVLMF [G17A], which protein stability index is on record?
A: The protein stability index was 3.03.

Q: Which protein stability index does the source give for ALLHQAETLQPSVWFGRREHVLMF [G17R] here?
A: The protein stability index was 3.53.

Q: Which protein stability index does the source give for ALLHQAETLQPSVWFGDREHVLMF [G17D] here?
A: The protein stability index was 1.27.

Q: For ALLHQAETLQPSVWFGQREHVLMF [G17Q], which protein stability index is on record?
A: The protein stability index was 1.4.

Q: For ALLHQAETLQPSVWFGTREHVLMF [G17T], which protein stability index is on record?
A: Its protein stability index is 2.68.

Q: Which protein stability index does the source give for ALLHQAETLQPSVWFGHREHVLMF [G17H] here?
A: Its protein stability index is 2.45.

Q: For ALLHQAETLQPSVWFGPREHVLMF [G17P], which protein stability index is on record?
A: Its protein stability index is 1.05.

Q: For ALLHQAETLQPSVWFGNREHVLMF [G17N], which protein stability index is on record?
A: The protein stability index was 2.51.

Q: Which protein stability index does the source give for ALLHQAETLQPSVWFGWREHVLMF [G17W] here?
A: Its protein stability index is 1.67.

Q: Which protein stability index does the source give for ALLHQAETLQPSVWFGYREHVLMF [G17Y] here?
A: The protein stability index was 1.58.

Q: With ALLHQAETLQPSVWFGVREHVLMF [G17V] as the variant, how does the protein stability index read?
A: Its protein stability index is 2.62.

Q: Which protein stability index does the source give for ALLHQAETLQPSVWFGKREHVLMF [G17K] here?
A: The protein stability index was 1.66.

Q: Which protein stability index does the source give for ALLHQAETLQPSVWFGIREHVLMF [G17I] here?
A: Its protein stability index is 2.68.

Q: For ALLHQAETLQPSVWFGEREHVLMF [G17E], which protein stability index is on record?
A: The protein stability index was 1.
